Results published in paper PMC10312502.

Target: human 40S ribosomal subunit labelled with Cy3 on the N-terminus of uS19 (human) (UniProt P62841)
Assay: FRET or BRET

Substance: Bat-Hp-CoV Nsp1, fluorescently labelled (wild type) (natural protein)
- fold inhibition of eIF1A association with the 40S subunit: > 2 fold
- koff: < 0.01 s⁻¹
- persistence of the FRET signal: > 100 s
